As a reminder, the pKd is −log10 of the Kd, conventionally taken in molar units. As usually defined, the pIC50 is −log10 of the IC50, conventionally taken in molar units. A high value points to a small IC50.

These results are taken from the Immune Epitope Database (IEDB).

The target in assay [1] is HLA-B*38:01. Put plainly: IEDB peptide-MHC binding, purified MHC/direct/fluorescence; filed as Kd, often an IC50 or EC50 that approximates it; ≥ and ≤ were set here for values at or beyond the usual limits of such assays. The conditions noted are these: source organism: Burkholderia mallei ATCC 23344.
Assay [2] deals with HLA-A*31:01. Described as above.
The target of assay [3] is HLA-B*58:01. The description is as above.
The target of assay [4] is HLA-B*07:02. Described as above.
The target of assay [5] is HLA-A*26:01. Described as above.
The target of assay [6] is HLA-B*15:01. Described as above.
The target in assay [7] is HLA-B*57:01. Described as above.
The target in assay [8] is HLA-A*03:01. The description is as above. Conditions: source organism: Burkholderia mallei.
For assay [9], the target named is HLA-B*08:02. Described as above. The conditions noted are these: source organism: Burkholderia mallei ATCC 23344.
For assay [10], the target named is HLA-A*69:01. The assay is described as above.
Assay [11] deals with HLA-B*51:01. Described as above. Conditions: source organism: Burkholderia mallei.
Assay [12] addresses HLA-A*01:01. The assay is described as above.
Assay [13] addresses HLA-B*27:05. The assay is described as above.
Assay [14] has as its target HLA-B*48:01. The description is as above.
For assay [15], the target named is HLA-B*46:01. The assay is described as above.
The target in assay [16] is HLA-B*39:01. The description is as above. The conditions noted are these: source organism: Burkholderia mallei ATCC 23344.
Assay [17] has as its target HLA-B*40:01. The assay is described as above. Conditions: source organism: Burkholderia mallei.
In assay [18] the target is HLA-B*15:17. The description is as above.
Assay [19] has as its target HLA-B*18:01. Described as above. The conditions noted are these: source organism: Burkholderia mallei.
The target of assay [20] is HLA-A*02:01. The assay is described as above. Conditions: source organism: Burkholderia mallei.
Assay [21] has as its target HLA-A*11:01. The description is as above.
Assay [22] deals with HLA-A*02:03. Description: IEDB peptide-MHC binding, purified MHC/competitive/fluorescence; filed as Kd, often an IC50 or EC50 that approximates it; ≥ and ≤ were set here for values at or beyond the usual limits of such assays. The conditions noted are these: source organism: Giardia lamblia ATCC 50803.
Assay [23] has as its target HLA-B*15:09. The description is as above. The conditions noted are these: source organism: Giardia lamblia ATCC 50803.
The target of assay [24] is HLA-A*30:01. The assay is described as above. Conditions: source organism: Giardia lamblia ATCC 50803.
For assay [25], the target named is HLA-B*08:01. Described as above. The conditions noted are these: source organism: Giardia lamblia ATCC 50803.
In assay [26] the target is HLA-A*02:01. Described as above. The conditions noted are these: source organism: Giardia lamblia ATCC 50803.
In assay [27] the target is HLA-B*08:03. Put plainly: IEDB peptide-MHC binding, purified MHC/direct/fluorescence; filed as Kd, often an IC50 or EC50 that approximates it; ≥ and ≤ were set here for values at or beyond the usual limits of such assays. Conditions: source organism: Giardia lamblia ATCC 50803.
Assay [28] deals with HLA-B*15:02. Described as above. Conditions: source organism: Giardia lamblia ATCC 50803.
Assay [29] has as its target HLA-A*68:02. Described as above. Conditions: source organism: Giardia lamblia ATCC 50803.
Assay [30] deals with HLA-B*58:01. Description: IEDB peptide-MHC binding, cellular MHC/competitive/fluorescence; ≥ and ≤ were set here for values at or beyond the usual limits of such assays. The conditions noted are these: source organism: Human herpesvirus 4 strain B95-8.
The target in assay [31] is HLA-B*15:02. Description: IEDB peptide-MHC binding, purified MHC/competitive/fluorescence; filed as Kd, often an IC50 or EC50 that approximates it; ≥ and ≤ were set here for values at or beyond the usual limits of such assays. Conditions: source organism: Homo sapiens.
Assay [32] has as its target HLA-B*46:01. Described as above. The conditions noted are these: source organism: Homo sapiens.
For assay [33], the target named is HLA-A*02:07. Put plainly: IEDB peptide-MHC binding, purified MHC/competitive/radioactivity; filed as Kd, often an IC50 or EC50 that approximates it; ≥ and ≤ were set here for values at or beyond the usual limits of such assays. Conditions: source organism: Homo sapiens.
The target in assay [34] is HLA-B*58:01. The assay is described as above. The conditions noted are these: source organism: Homo sapiens.
Assay [35] deals with HLA-B*57:01. Described as above. The conditions noted are these: source organism: Homo sapiens.
Assay [36] concerns the target HLA-A*29:02. The description is as above. The conditions noted are these: source organism: Homo sapiens.
For assay [37], the target named is HLA-A*02:01. Described as above. The conditions noted are these: source organism: Homo sapiens.
The mark [38] stands for this setting: source organism: Burkholderia mallei.
Setting [39] is: source organism: Giardia lamblia ATCC 50803.

pIC50, pKd: −log10 of the molar value. Bounds are passed on as bounds.

Turning to AVAVARVAA, the pKd in assay [1] is at most 4.70; in assay [2] (setting [38]) it was at most 4.70; in [3] (setting [38]), at most 4.70; in assay [4] (setting [38]) it was 6.66; in assay [5] (source organism: Burkholderia mallei ATCC 23344), at most 4.70; in assay [6] (setting [38]), 5.38. In addition, the pKd in assay [7] (setting [38]), in assay [8], in assay [9], in assay [10] (setting [38]), in assay [11] and in [12] (setting [38]) was at most 4.70 each time. The pKd in assay [13] (setting [38]), in [14] (setting [38]), in [15] (setting [38]), in [16], in [17] and in assay [18] (setting [38]) was at most 4.70 throughout. The pKd in [19], in [20] and in [21] (setting [38]) was at most 4.70 each time.

In the case of QLKQRDALF, the pKd was at most 4.70 in assay [22]; at most 4.70 in assay [23]; at most 4.70 in assay [24]; 6.87 in [25]; at most 4.70 in assay [26]; at most 4.70 in assay [2] (setting [39]). In addition, the pKd in [3] (setting [39]) is at most 4.70; in [4] (setting [39]), at most 4.70; in assay [5] (setting [39]), at most 4.70; in [6] (setting [39]), 7.57; in [27] it was 6.77; in assay [7] (setting [39]), 5.83. Further, the pKd in assay [28] was 7.54; in assay [10] (setting [39]), at most 4.70; in assay [12] (setting [39]) it was at most 4.70; in assay [13] (setting [39]) it was at most 4.70; in assay [14] (setting [39]), at most 4.70; in [15] (setting [39]) it was at most 4.70. Moreover, the pKd is 7.18 in assay [18] (setting [39]), at most 4.70 in [21] (setting [39]) and at most 4.70 in assay [29].

For LSIFDTSLF, the pIC50 in assay [30] is 5.30.

For FIKDGSSTY, the pKd is 8.41 in assay [31]; 7.78 in assay [32]; at most 4.20 in [33]; at most 4.40 in assay [34]; at most 4.21 in [35]; 6.29 in assay [36]. In addition, the pKd in assay [37] is at most 4.11.
